Results from the supplement of paper PMC9170038.

System: MS2 coat protein
Assay: apparent KD of MS2 coat protein; designed switch direction (-1 OFF switch, 1 ON switch): -1; higher = weaker reporter binding
In short: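 Each step of the titration lasted 0.8–1.5 h at the lowest concentration and 10–20 min at the highest. The protein, SNAP-549-labelled MS2 coat protein, went from 0.7 or 1.5 nM doubling to 3 µM over RNA switches transcribed on Illumina chips by stalled E. coli RNA polymerase. Normalised cluster fluorescence was curve-fitted, and the per-design median over clusters is given as apparent KD.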

[1] = Eterna round: R95, input ligand: FMN 200 uM
[2] = Eterna round: R95, input ligand: microRNA oligo, concentration not stated
[3] = Eterna round: R95, input ligand: none
[4] = input ligand: microRNA oligo, concentration not stated

GAUUAUGCGAGCUUUAGGGACAUGAGGAUCACCCAUGUUCGUCUUAUUGAUCUGGAUACACUAACAUACCUAAAUCU [JMF 13] (puzzle: Sensor v3, turn-off variant 1)
apparent KD of MS2 coat protein [1]: 26.8 nM
apparent KD of MS2 coat protein [2]: 32.3 nM
apparent KD of MS2 coat protein [3]: 25.2 nM

GAUUAUGCGAGCUUUAGGGACAUGAGGAUCACCCAUGUUCGUCUUAUUGAUCUGGGUACACUGACAUACCUAAAUCU [JMF 70] (puzzle: Sensor v3, turn-off variant 1)
apparent KD of MS2 coat protein [1]: 88.8 nM
apparent KD of MS2 coat protein [2]: 115 nM
apparent KD of MS2 coat protein [3]: 110 nM

GAUUCACAUGACUGUCUAUACAUGAGGAUCACCCAUGUUUGUUUUUAUUUUUUUUUGCUUUUUAGUCGUCUUAUUAU [1 hard RNA] (Eterna round: R97, puzzle: Sensor, turn-off variant 1)
apparent KD of MS2 coat protein (input ligand: FMN 200 uM): 37.1 nM
apparent KD of MS2 coat protein (input ligand: none): 35.2 nM

GAUUCGCGAGGAUAUACAGUCGAGUCCAUUACGUGUCUGGGACUUGAGGAUCACCCAAGUAGAAGGCGUCUCAU [salish99_ex2_r4_638] (Eterna round: R97, puzzle: Exclusion 2)
apparent KD of MS2 coat protein (input ligand: FMN 200 uM): 55.6 nM
apparent KD of MS2 coat protein (input ligand: none): 57.8 nM

GAUUGACAUGAGGAUCACCCAUGUGAGGAUAUCGGCUGGACCGUGUUGGCUUGCCUCUCGAGAAGGCGCAUAGG [Exclusion 1 V52] (puzzle: Exclusion 1)
apparent KD of MS2 coat protein [1]: 38.8 nM
apparent KD of MS2 coat protein [2]: 35 nM
apparent KD of MS2 coat protein [3]: 43.8 nM

GAUUUUCAUGUAGGAUAUUCCACACAACAACUGGGAGAAGGACAUGAGGAUCACCCAUGUCCUACAACAACUUCAACAAACACA [Weak Sauce] (Eterna round: R96, puzzle: Exclusion NG 1)
apparent KD of MS2 coat protein (input ligand: FMN 200 uM): 15.8 nM
apparent KD of MS2 coat protein [4]: 9.75 nM
apparent KD of MS2 coat protein (input ligand: none): 11.4 nM

GCAAGCUUUAUCAAUAAGAACAUGAGGAUCACCCAUGUAUAAGGUAUUACUUUUGGGCUCUUUAGUGCUCGUCUUAU [JR_STOV1_Sub034] (Eterna round: R97, puzzle: Sensor, turn-off variant 1)
apparent KD of MS2 coat protein (input ligand: FMN 200 uM): 47.4 nM
apparent KD of MS2 coat protein (input ligand: none): 51.5 nM

GCAAGCUUUAUCACUAUGAACAUGAGGAUCACCCAUGUAUAAGGUAUUACUUUUGGGCUCUUUAGUGCUCGUCUUAU [JR_STOV1_Sub033] (Eterna round: R97, puzzle: Sensor, turn-off variant 1)
apparent KD of MS2 coat protein (input ligand: FMN 200 uM): 26.2 nM
apparent KD of MS2 coat protein (input ligand: none): 26.7 nM

GCAAGCUUUUAGAUUUUCAACAUGAGGAUCACCCAUGUUCGUCUUGUGCUCGGGCUUGGGCGGUGUCCGGGUUUGGG [JL TOV1 3.76 sellena mod] (Eterna round: R97, puzzle: Sensor, turn-off variant 1)
apparent KD of MS2 coat protein (input ligand: FMN 200 uM): 36.2 nM
apparent KD of MS2 coat protein (input ligand: none): 38.3 nM

GCAAUGAGUGUGAGGAUAUGCUGGUCCUUGGAUCAGCAGAAGGCACAUGAGGAUCACCCAUGUGAAAACAUUGC [Mat - Exclusion 4 - JL Mod - D63] (puzzle: Brourd's mod of Exclusion 4)
apparent KD of MS2 coat protein [1]: 147 nM
apparent KD of MS2 coat protein [2]: 17.4 nM
apparent KD of MS2 coat protein [3]: 23.1 nM

GCACCGUCAGGAUAUACAUGAGGAUCACCCAUGUGACCACCACUGUUCAUGACGCAUUGUAGAAGGGACGGAAA [Eternabot (L2) Solution 47] (Eterna round: R97, puzzle: Exclusion 3)
apparent KD of MS2 coat protein (input ligand: FMN 200 uM): 250 nM
apparent KD of MS2 coat protein (input ligand: none): 54.7 nM

GCACGAAGUGUAGGAUAUCUGUGCGAUUAGCUCAGAGAAGGACACAUGAGGAUCACCCAUGUGUUCCAAUACUCAAAUACGUGC [Eli exng1 - 0622] (Eterna round: R96, puzzle: Exclusion NG 1)
apparent KD of MS2 coat protein (input ligand: FMN 200 uM): 10.1 nM
apparent KD of MS2 coat protein [4]: 9.09 nM
apparent KD of MS2 coat protein (input ligand: none): 12.2 nM

GCACGAAGUGUAGGAUAUCUGUGCGAUUAGCUCAGAGAAGGACACAUGAGGAUCACCCAUGUGUUCCAAUCACAAAAUACGUGC [Eli exng1 - 060] (Eterna round: R96, puzzle: Exclusion NG 1)
apparent KD of MS2 coat protein (input ligand: FMN 200 uM): 11.7 nM
apparent KD of MS2 coat protein [4]: 11 nM
apparent KD of MS2 coat protein (input ligand: none): 11.9 nM

GCACGAAGUGUAGGAUAUCUGUGCGAUUAGCUCAGAGAAGGACACAUGAGGAUCACCCAUGUGUUCCAGCGAAAGCAAACGUGC [Eli exng1 - 055] (Eterna round: R96, puzzle: Exclusion NG 1)
apparent KD of MS2 coat protein (input ligand: FMN 200 uM): 9.68 nM
apparent KD of MS2 coat protein [4]: 7.78 nM
apparent KD of MS2 coat protein (input ligand: none): 12.9 nM

GCACGACAUCAGGAUAUGACUAGCUUCGGCUAGUCAGAAGGGAUGACAUGAGGAUCACCCAUGUGAUCACGUGC [E6/2-B1] (Eterna round: R97, puzzle: Exclusion 6)
apparent KD of MS2 coat protein (input ligand: FMN 200 uM): 122 nM
apparent KD of MS2 coat protein (input ligand: none): 91.8 nM

GCACGGAAUGUAGGAUAUUAGUGCGAUUAGCACUGAGAAGGACAUGAGGAUCACCCAUGUAAUAACAUAAUAAACCUUCCGUGC [Eli exng1 - 046] (Eterna round: R96, puzzle: Exclusion NG 1)
apparent KD of MS2 coat protein (input ligand: FMN 200 uM): 12.1 nM
apparent KD of MS2 coat protein [4]: 8.27 nM
apparent KD of MS2 coat protein (input ligand: none): 13.6 nM

GCACGGAGUGCAGGAUAUCUGUGCGAUUAGCUCAGAGAAGGGCACAUGAGGAUCACCCAUGUGUAUAAAACACAAAAUCCGUGC [Eli exng1 - 066] (Eterna round: R96, puzzle: Exclusion NG 1)
apparent KD of MS2 coat protein (input ligand: FMN 200 uM): 22.1 nM
apparent KD of MS2 coat protein [4]: 10.2 nM
apparent KD of MS2 coat protein (input ligand: none): 14.5 nM

GCACGGAGUGUAGGAUAUCUGUGCGAUUAGCUCAGAGAAGGACAUGAGGAUCACCCAUGUGUGUUCCAAUACUCAAAUCCGUGC [Eli exng1 - 064] (Eterna round: R96, puzzle: Exclusion NG 1)
apparent KD of MS2 coat protein (input ligand: FMN 200 uM): 710 nM
apparent KD of MS2 coat protein [4]: 55.4 nM
apparent KD of MS2 coat protein (input ligand: none): 52.1 nM

GCACGGAGUGUAGGAUAUUAGUGCGAUUAGCACUGAGAAGGACAUGAGGAUCACCCAUGUUCCUCAAUAACAUACCUUCCGUGC [Eli exng1 - 042] (Eterna round: R96, puzzle: Exclusion NG 1)
apparent KD of MS2 coat protein [4]: 9.5 nM

GCACGGAGUGUAGGAUAUUAGUGCGAUUAGCACUGAGAAGGACAUGAGGAUCACCCAUGUUCCUCAUAAAUUAGCCUUCCGUGC [Eli exng1 - 037] (Eterna round: R96, puzzle: Exclusion NG 1)
apparent KD of MS2 coat protein (input ligand: FMN 200 uM): 27.4 nM
apparent KD of MS2 coat protein [4]: 21 nM
apparent KD of MS2 coat protein (input ligand: none): 27 nM

GCACGGAUGGUAGGAUAUCAUUGCGAUUAGCUAUGAGAAGGACCACAUGAGGAUCACCCAUGUCCUCUAAUUAGCCUUCCGUGC [Eli exng1 - 016] (Eterna round: R96, puzzle: Exclusion NG 1)
apparent KD of MS2 coat protein [4]: 156 nM

GCACGGAUGGUAGGAUAUCCUUGCGAUUAGCAAGGAGAAGGACCACAUGAGGAUCACCCAUGUACCUCAAUUAUCCUUCCGUGC [Eli exng1 - 023] (Eterna round: R96, puzzle: Exclusion NG 1)
apparent KD of MS2 coat protein (input ligand: FMN 200 uM): 12.7 nM
apparent KD of MS2 coat protein [4]: 9.18 nM
apparent KD of MS2 coat protein (input ligand: none): 15.8 nM

GCAGAAAGUGUAGGAUAUAUAAAUUAGCGGAAACGCAAUACAUGAGGAUCACCCAUGUUUCCUCAAUAGAAGGGCAAAAGCUGC [EXNG2 V2 e] (Eterna round: R96, puzzle: Exclusion NG 2)
apparent KD of MS2 coat protein (input ligand: FMN 200 uM): 88 nM
apparent KD of MS2 coat protein [4]: 37.9 nM
apparent KD of MS2 coat protein (input ligand: none): 79.8 nM

GCAGACGUAGUGAGGAUAUGCUCUACCUCGGUAGAGCAGAAGGCACAUGAGGAUCACCCAUGUGGCUCCUCAUU [Omei Ex4B B22] (Eterna round: R97, puzzle: Brourd's mod of Exclusion 4)
apparent KD of MS2 coat protein (input ligand: FMN 200 uM): 16.8 nM
apparent KD of MS2 coat protein (input ligand: none): 15 nM
